B1: TPR t1 (parent)
chain: GACCAAUCUGCCCUCAGAGCUCGAGAACAUCUUCGGAUGCAGAGGAGGCAGGCUUCGGUGGCGCGAUAGCGCCAACGUCCUCAACCUCCAAUGCAUCCCACCACAUGAUGAUGCCUGAAGAGCCUUGGUUUUUUG

Variants of: B1
Experiment: polymerase ribozyme fitness, log enrichment relative to wild type (log ratio); higher = more active; in vitro selection for triplet polymerase activity
Method in brief: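 Each subunit of a heterodimeric triplet polymerase ribozyme was mutagenized into a library by PCR, transcribed, and subjected to one round of in vitro selection, run in triplicate. Libraries were annealed with a biotinylated primer, the partner subunit and triplets, incubated frozen at −7 °C, and extended constructs were gel-excised, captured on streptavidin beads and recovered by RT-PCR. Input and output libraries were sequenced on Illumina, keeping genotypes with ≥10 input reads and ≥1 read per output. Fitness is log base 2 of genotype enrichment divided by wild-type enrichment, from inverse-variance-weighted replicate averages.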

Variant | polymerase ribozyme fitness (log ratio)
C56U G128C | -2.63
A29G G69U | -0.507
G52U A68G G77C | -4.82
A27C U54A G71A C115A U129A | -5.86
U7G G71U C115A | 1.44
U116A A121U | -0.72
C28G U59G U81C G117C | -6.32
C94A G110C G120C | -6.12
A6C U133A | -0.897
U38G C49U U125G | -2.98
G39A A50C C73A C79A C82G | -0.859
A37C G61U C104U U112C | 1.04
C31U A119G | -3.71
U7G A43U G47C G58U U59G C82U G110A | -5.4
G63A A121C G135A | 0.83
C20G C53A | -4.27
C8A G47A C80A U112A | -5.77
C8A A37C | 0.0805
C40U A50U | -4.47
C15G C73A C88G | -3.31
A18U C94U | -3.18
U33A A46C G61A | -5.04
A5U A37G C79G | -1.97
C3A A111C G128U U129A | -1.89

Variant | polymerase ribozyme fitness (log ratio)
G44C G47U C53A C76G C102G G110C | -7.23
G63A C102U | -3.27
A27U C40G U132A | -5.01
G45U C82U | -1.52
C53A A74U C89U | -0.387
C4A U55C | -2.5
C34A A68G A100C C123U | -5.6
U30C G42U C76G C85A G122A C123G | -4.17
G42A U87C C89G A90G C115U | -5.47
C12U C86A | 0.101
U21A G42A A46U G60A G120A | -2.58
C8G U14C G39C A100C | -0.867
C56U C115U U126A | -2.48
C11U C49U | -1.29
U32C C40G G57U G117C G120A | -6.56
A2U A5C G69A C86U | -6.09
A2U U54A C72A C101G U129A U130A | -2.15
C15G C34A C70G A121C | -6.55
C12U C20A A74U G128A | -5.15
A6U C13A U21C | -1.41
G52C U116C | -1.72
A6U A27U G63A A121G U130A | -2.41
G71A C98G | -6.1
C22A C86G | -4.67

Variant | polymerase ribozyme fitness (log ratio)
A41U G42U G93C | -3.1
A24G A46G G57U A100C | -4
G44C G48A | -0.967
G39C C114A | -1.94
C8G A100U U106A U116A | -0.749
C28G A46U | -3.8
A2C A121G | 0.405
C12U A46U G51U G60A | -3.42
A27U U54C U109A G117A A118U U129G | -5.85
C62A C98U C123A | -2.16
U7A C53U U59G G60U C72G | -0.651
G45C U55C A75U A95G U126A U129A | -4.26
C11U C22A A37G A68G C72A U109A | -5.84
A24U U30C G58A G63C A95G G120C | -8.06
C11G C70U C79A | -1.87
G35C C76G C99G A100C U112A G120A | -6.53
G48A A83U C102A | -2.24
C8U C70U C97U C124U U131A | 0.416
A105G U106A G120U U133C | 0.414
C88G G117A | -2.35
G63U G127A | -2.25
G48U C94U | -1.2
G61U C79A C99A G120C | -6.8
G39A C124A | 1.38

Variant | polymerase ribozyme fitness (log ratio)
C15A C49U G61A | -1.73
G39U C123G U126C | -0.255
G60U C86U | -1.37
C11A C70A | -2.06
U21A A27G G51U U116C | -7.29
C15G C40G C56A | -3.88
G61U U78G U112G | 0.877
C20A C82A U87G | -1.92
U14G C123U | -0.161
A5U G60C C124U | -0.742
C34A G113C | -5.75
A5G A6G C11U C28U G120U | -2.3
C3A G57C G71U A90U C114A U132C | -2.98
C13U A29G A83G | -1.83
C56A G69U A119G | 0.438
C56G | -0.465
U81A C86G | -1.48
C8G C15A C20U C56A G57U | -1.84
A6U C12U G110U | -1.97
C12A C40U A111C U131A | -0.623
A74U G128U U130C | -0.708
C3G G19A C20G C88G U112G C115U | -5.61
C115A G127A | -0.375
C15G A16G C49U C56U G117U | -1.99

Variant | polymerase ribozyme fitness (log ratio)
C56U G61U U112C A118C | -4.53
C56U U92A | -2.86
C4A C104A | -2.32
U9C C49A A91C C104U | -1.34
G25A G93A | -6.22
A27G U55A G77C A95C | -4.8
G42U C49G U112A | -0.357
G48A G63A U116C G122A | -5.7
A46C G113A G128A | -4.59
C11G C22U | -2.75
C11G U21A C53A C97G | -3.53
G63C C76U U87G U116A G120A | -4.12
C11U C70A A121C | 0.0688
C8G A37G G71A | 0.737
C8A A121U | 2.6
A18U C86G G113U | -4.47
C28G C82U | -2.1
G61U A66U U112A | 0.256
C20G G120U | -4.25
G19A G44U G48C C49A C53A G69U C88G C104A G135C | -2.97
C104A G128A | -3.67
C70U U78A A95U U112G U133A | -0.788
G63C C89U C102U A111C C115U | -6.78
G63C A108U A121U G122A | -7.45

Variant | polymerase ribozyme fitness (log ratio)
U9C C12G C28U C73U G110C | -1.73
A75U | -0.493
C31U A46C G113U A119G | -5.51
U9C G17A A18G G113U | -4.74
A26G G47A C49G G71U | -4.24
U59A A75U C86A C115G U116A G117A | -5.94
A43U G93C G117C | -4.65
C40A G57U G122U | -2.54
A24U A83U C94U A111C G122A | -6.94
C89U A121G | -0.907
C12A A50C C53U A74C | -0.606
U7G G117U | -2.24
A18G C56G C114A | -4.99
U9C U78C A83U A90G A121G | 2.5
G52U G61A C102U U126C | -3.23
C34A G42A G61A G117C U131C | -7.25
A18U A26G C40G A43U G69A C97A U112A | -7.04
A46G A91C G93A | -3.21
A111C G122C | -1.39
C8U C20A A26C G60C | -5.68
G77U U106C C124A | -3.43
C13G U112G | -0.767
C28G A118G | -2.17
A91C U125A | -2.71

Variant | polymerase ribozyme fitness (log ratio)
C56G A74U G120U G127A | -1.98
C13U C88A A90C | -1.03
C56U A111G | 0.705
G57C G61U U96G | -1.85
G48C C64U | -1.12
C62U G113A | -0.93
C13A G39U U59G G69C | -3.36
A43G C76U U109G | -6.79
G45C C62A | -2.24
A5C A6U A50U C56U A121U | 1.17
G69C G117A | -2.37
C22U G60A U96G | -4.57
C40A C82G | -1.95
G48U C49A C115U U133C | -2.27
A46U C56G U78C G93C G120U | -3.59
A26C U54G C70A U109G | -5.98
C4A C40U G42C G52U G60A A119U U129A | -5.41
C56U C73A C85A A91G | -5.09
U9G C20U U87G | -0.825
C56U A100U U129A | -1.49
G69A G135U | -3.93
U7A U106A | 0.182
U112A U126A | 1.04
